Positions count from the first letter of the chain named. Numbers in names are those of the source. Where “and” joins values, the source holds several entries; their conditions need not be identical. Equal entries are not always repeated.
T1: IL-18 receptor alpha chain (UniProt Q13478 19-329, limits assumed)
T1 construct: also called IL-18Rα; IL-18 Rα
T1 sequence (looked up): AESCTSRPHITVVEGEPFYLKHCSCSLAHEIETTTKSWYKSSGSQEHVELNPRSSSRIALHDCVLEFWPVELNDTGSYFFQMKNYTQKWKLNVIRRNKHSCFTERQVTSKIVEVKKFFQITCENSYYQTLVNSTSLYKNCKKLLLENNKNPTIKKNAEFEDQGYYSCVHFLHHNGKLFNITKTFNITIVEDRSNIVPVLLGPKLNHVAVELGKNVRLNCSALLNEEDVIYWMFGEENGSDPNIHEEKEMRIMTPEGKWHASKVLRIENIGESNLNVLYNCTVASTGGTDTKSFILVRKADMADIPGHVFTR

B1: human IL-18 C38S, C68D, D157C (SEQ ID NO:8) (ligand)
chain: YFGKLESKLSVIRNLNDQVLFIDQGNRPLFEDMTDSDSRDNAPRTIFIISMYKDSQPRGMAVTISVKDEKISTLSCENKIISFKEMNPPDNIKDTKSDIIFFQRSVPGHDNKMQFESSSYEGYFLACEKERDLFKLILKKEDELGDRSIMFTVQNEC
notes: Non-pegylated substitution mutant; also called IL-18 C157 (C38S, C68D, D157C)
B2: human IL-18 C38S, C68S, L144C (SEQ ID NO:9) (ligand)
chain: B1 chain with D68S, L144C, C157D
notes: Non-pegylated substitution mutant; also called IL-18 C144 (C38S, C68S, L144C)
B3: human IL-18 C38S, C68S, D157C (SEQ ID NO:10) monopegylated at C157 with 30K PEG (ligand)
chain: B1 chain with D68S
modifications: methoxy polyethylene glycol maleimide, 30,000 Da, on Cys 157
notes: also called IL-18 C157PEG30K; 157C-30K
B4: human IL-18 C38S, C68D, L144C (SEQ ID NO:7) monopegylated at C144 with 20K PEG (ligand)
chain: B1 chain with L144C, C157D
modifications: methoxy polyethylene glycol maleimide, 20,000 Da, on Cys 144
notes: also called IL-18 C144PEG20K
B5: human IL-18 C38S, C68D, L144C (SEQ ID NO:7) monopegylated at C144 with 30K PEG (ligand)
chain: B1 chain with L144C, C157D
modifications: methoxy polyethylene glycol maleimide, 30,000 Da, on Cys 144
notes: also called IL-18 C144PEG30K
B6: human IL-18 C38S, C68S, L144C (SEQ ID NO:9) monopegylated at C144 with 20K PEG (ligand)
chain: B1 chain with D68S, L144C, C157D
modifications: methoxy polyethylene glycol maleimide, 20,000 Da, on Cys 144
notes: also called IL-18 C144PEG20K
B7: human IL-18 C38S, C68S, D157C (SEQ ID NO:10) monopegylated at C157 with 20K PEG (ligand)
chain: B1 chain with D68S
modifications: methoxy polyethylene glycol maleimide, 20,000 Da, on Cys 157
notes: also called IL-18 C157PEG20K; 157C-20K
B8: human IL-18 C38S, C68D, L144C (SEQ ID NO:7) (ligand)
chain: B1 chain with L144C, C157D
notes: Non-pegylated substitution mutant; also called IL-18 C144 (C38S, C68D, L144C)
B9: human IL-18 C38S, C68D, L144C (SEQ ID NO:7) monopegylated at C144 with 40K PEG (ligand)
chain: B1 chain with L144C, C157D
modifications: methoxy polyethylene glycol maleimide, 40,000 Da, on Cys 144
notes: also called IL-18 C144PEG40K
B10: human IL-18 C38S, C68D, D157C (SEQ ID NO:8) monopegylated at C157 with 30K PEG (ligand)
chain: B1 chain
modifications: methoxy polyethylene glycol maleimide, 30,000 Da, on Cys 157
notes: as for B3
B11: human IL-18 C38S, C68S, L144C (SEQ ID NO:9) monopegylated at C144 with 30K PEG (ligand)
chain: B1 chain with D68S, L144C, C157D
modifications: methoxy polyethylene glycol maleimide, 30,000 Da, on Cys 144
notes: also called IL-18 C144PEG30K
B12: human IL-18 C38S, C68D, D157C (SEQ ID NO:8) monopegylated at C157 with 40K PEG (ligand)
chain: B1 chain
modifications: methoxy polyethylene glycol maleimide, 40,000 Da, on Cys 157
notes: also called IL-18 C157PEG40K; 157C-40K
B13: human IL-18 C38S, C68S, D157C (SEQ ID NO:10) (ligand)
chain: B1 chain with D68S
notes: Non-pegylated substitution mutant; also called IL-18 C157 (C38S, C68S, D157C)
B14: human IL-18 C38S, C68D, D157C (SEQ ID NO:8) monopegylated at C157 with 20K PEG (ligand)
chain: B1 chain
modifications: methoxy polyethylene glycol maleimide, 20,000 Da, on Cys 157
notes: as for B7

What follows are binders tested against T2, IL-18 receptor (heterodimeric surface receptor composed of α- and β-chains) on KG-1 cells (assay: cell-based or functional assay).

NF-κB KG-1 EC50 | NF-κB KG-1 EC50 (ng/ml), av. [ng/mL] | Binder
0.004 µg/mL | 4 | B1
 | 2.6 | B2
0.047 µg/mL | 47 | B3
0.058 µg/mL and 0.066 µg/mL and 0.042 µg/mL | 55.3 | B4
0.038 µg/mL | 38 | B5
0.071 µg/mL and 0.092 µg/mL | 81.5 | B6
0.049 µg/mL and 0.059 µg/mL | 54 | B7
0.0035 µg/mL and 0.0016 µg/mL | 2.6 | B8
0.271 µg/mL and 0.33 µg/mL | 300 | B9
0.094 µg/mL and 0.043 µg/mL | 68.5 | B10
0.044 µg/mL | 44 | B11
 | 278 | B12
 | 2 | B13
 | 37.3 | B14

Molecular target: T2, IL-18 receptor (heterodimeric surface …)
Experiment: cell-based or functional assay
Remark: another data set of the same source

NF-κB bioassay, reduction in potency relative to the native IL-18 [fold] | Binder
~10 | B1
~10 | B8

What follows are binders tested against T1, IL-18 receptor alpha chain (assay: SPR (BIAcore)).

Kd [µM] | Binder
0.196 | B1
0.534 | B2
6.34 | B3
2.69 | B4
4.26 | B5
5.19 | B6
5.5 | B7
0.222 | B8
5.35 | B9
5.33 | B10
8.26 | B11
22.9 | B12
0.41 | B13
5.16 | B14
